# Test results as given in patent publication US20050036993A1, “Immune activation by double-stranded polynucleotides” (priority 1998, published 2005).
# B1: KIFN: K-interferon (gamma interferon, character lost), rat recombinant, 100 U/ml (protein, UniProt P01581 23-156, looked up)
# Interferon gamma: QGTLIESLESLKNYFNSSSMDAMEGKSLLLDIWRNWQKDGNTKILESQIISFYLRLFEVLKDNQAISNNISVIESHLITNFFSNSKAKKDAFMSIAKFEVNNPQIQHKAVNELIRVIHQLSPESSLRKRKRSRC
# Tested on: NF-PB
# Assay: Gel shift analysis with NF-PB consensus ODN, nuclear protein of FRTL-5 cells
# Type: cell-based, rat
# Conditions: nuclear extracts; dsDNA within 3 hours
# Experimental: Nuclear Extracts—A previously employed method to prepare nuclear extracts (S. Ikuyama et al., Mol. Endocrinol. 6:1701-1715 (1992)) was modified to prepare extracts from small numbers of cells. Cells were washed, scraped in 1 ml PBS, pelleted in a microfuge, and resuspended in five volumes of Buffer A (10 mM HEPES-KOH, pH 7.9, 10 mM KCl, 1.5 mM MgCl2, 0.1 mM EDTA) containing 0.3 M sucrose and 2% Tween 40. To release nuclei, they were frozen and thawed once, then repetitively pipetted, 50 to 100 times, using a micropipet with a yellow tip (200 T1 capacity). Samples were overlayed on 1 ml of 1.5 M sucrose in Buffer A and microfuged for 10 min at 4EC. Pelleted nuclei were washed with 1 ml Buffer A, centrifuged for 30 sec, then resuspended in 50 T1 of Buffer B (20 mM HEPES-KOH, pH 7.9, 420 mM NaCl, 1.5 mM MgCl2, 0.2 mM EDTA, 25% glycerol). Samples were placed on ice for 20 min with occasional vortexing and centrifuged for 20 min at 4EC. The supernatant fraction containing nuclear protein was aliquoted and stored at −70 C. […]
# Electrophoretic Mobility Shift Analysis (EMSA)—Oligonucleotides were labeled with [K-^32P]ATP using T4 polynucleotide kinase, then purified on 8% native polyacrylamide gels (S. Ikuyama et al., Mol. Endocrinol. 6:1701-1715 (1992); H. Shimura, et al., Mol. Endocrinol. 8:1049-69 (1994)). […] Mixtures were analyzed on 5% native polyacrylamide gels and autoradiographed. […]
molecule,measurement,value
B1,binding of p50/p65 and p50 homodimer to consensus NF-PB oligonucleotide binding site,significantly lesser level
